# Measurements as given in patent publication US8598081B2, “Specific delivery of agrochemicals” (priority 2010, dated 2013).
# T1: potato lectin (Solanum tuberosum, UniProt Q9S8M0)
# T1 construct: purchased Sigma
# T1 sequence (Q9S8M0 whole entry, looked up): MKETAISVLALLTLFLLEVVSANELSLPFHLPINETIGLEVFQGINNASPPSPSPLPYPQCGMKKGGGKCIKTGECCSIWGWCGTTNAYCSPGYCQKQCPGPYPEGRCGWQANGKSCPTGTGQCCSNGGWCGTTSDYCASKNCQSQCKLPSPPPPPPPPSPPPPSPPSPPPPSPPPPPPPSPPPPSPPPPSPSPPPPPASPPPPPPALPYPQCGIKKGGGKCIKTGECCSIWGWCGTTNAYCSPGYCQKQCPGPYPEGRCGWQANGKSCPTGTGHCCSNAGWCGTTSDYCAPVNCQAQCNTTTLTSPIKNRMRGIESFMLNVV
# B1: VHH 3E6: VHH binding gum arabic, potato lectin and leaf surface; SEQ ID NO:7 by order of the list (protein, listed as Lama glama)
# VHH: QVQLQESGGGLVQPGGTLSLSCAASGFNVRWYGMGWFRQAPGKEREGVACISALQETTAYADSVKGRFTLSRDNPKNTLSLQMNNLQPEDTGVYYCATTDCDDSSRMTYTSYLGQGTQVTVSS
# modifications: 3E6
# Key:
# [1] = target: T1, potato lectin; experiment: VHH binding to potato lectin in ELISA; settings: Table 2; Blank (no antigen coating); VHH 3 μg/ml
# Protocol: ELISA plates (Maxisorp, Nunc) coated with 100 μl per well 100 μg/ml potato lectin (Sigma) in PBS were coated at 4° C. overnight and coating was continued at room temperature for 1 hour on the next day. Plates were washed three times with PBS/0.05%-TWEEN®-20 and blocked with 5% skimmed milk in PBS for 1 hour. VHH (3 μg/ml) were transferred to the potato lectin-coated plates and VHH antibody fragments were allowed to bind for 1 hour at room temperature. Bound VHH were detected with sequential incubations with monoclonal mouse anti-histidine antibodies (Abd Serotec) and rabbit anti-mouse IgG whole molecule antibodies conjugated with alkaline phosphatase (RaM/AP) (Sigma) in 1% MPBS/0.05%-TWEEN®-20. Unbound antibodies were removed by washing three times with PBS/0.05%-TWEEN®-20 after each antibody incubation. The plates were washed an additional two times with PBS and 100 μl pNPP disodium hexahydrate substrate (Sigma) was added to each well and the absorbance at 405 nm was measured (see Table 2).
# [2] = test system: potato leaf discs; experiment: VHH binding at different pH, leaf dip experiment; set-up: species or system potato (variety Desiree); settings: whole range tested from pH 2 to pH 11; 5 μg/ml; 1 hour
# Protocol: In order to test applicability of VHH as binders for greenhouse or field applications where binding supposedly may occur at pH-values, deviating strongly from physiological conditions in which antibodies naturally bind their targets, a leaf dip VHH binding experiment was carried out in a series of solutions with different pH. The following solutions were prepared: 50 mM glycine pH 2.0, 50 mM sodium acetate pH 4.0, 50 mm sodium carbonate pH 9.6, and 10 mM sodium hydroxide pH […] 8 mm potato leaf discs (variety Desiree) were cut using a puncher tool. The leaf discs were first equilibrated to the different pH by washing three times with solutions at different pH. Hexahistidine-tagged VHH were diluted to 5 μg/ml in solutions with different pH, added to the corresponding equilibrated leaf discs, and binding of VHH was allowed for 1 hour. After incubation with VHH, leaf discs were washed three times with solutions at the corresponding different pH. After that, all were washed two times with PBS to equilibrate leaf discs to PBS. Bound VHH were detected by incubation with monoclonal mouse anti-histidine antibodies directly conjugated with Alexa-488 fluorescent dye (Abd Serotec) in PBS for 1 hour. Unbound anti-histidine antibodies were removed by washing five times with PBS. Leaf discs were analyzed for bound VHH with microscopy.
# [3] = test system: potato leaf discs; experiment: VHH binding at different temperatures, leaf dip experiment; set-up: species or system potato (variety Desiree); settings: temperature range from 4° C. to 55° C.; 5 μg/ml in PBS; 1 hour
# Protocol: In order to test applicability of VHH as binders for greenhouse or field applications where binding supposedly may occur at different and sometimes even extreme temperatures, a leaf dip VHH binding experiment at different temperatures was used. Temperatures used were 4° C., room temperature, 37° C., 55° C., or 70° C. ø 8 mm potato leaf discs (variety Desiree) were cut using a puncher tool. The leaf discs were equilibrated to different temperatures by washing three times with PBS at different temperatures. Hexahistidine-tagged VHH were diluted to 5 μg/ml in PBS at different temperatures, added to the corresponding equilibrated leaf discs, and binding of VHH was allowed for 1 hour at different temperatures. After incubation with VHH, leaf discs were washed five times with PBS at room temperature. Bound VHH were detected by incubation with monoclonal mouse anti-histidine antibodies directly conjugated with Alexa-488 fluorescent dye (Abd Serotec) in PBS for 1 hour at room temperature. Unbound anti-histidine antibodies were removed by washing five times with PBS at room temperature. Leaf discs were analyzed for bound VHH with microscopy. […] Please note that leaf discs severely suffer when submerged in PBS at 70° C. for 1 hour but that binding of VHH was still detected.
molecule,measurement,setting,value
B1,absorbance at 405 nm,[1],0.067
same,binding to leaf discs at different pH,[2],detectable binding
same,binding to leaf discs at different temperatures,[3],detectable binding
